Conditions: Geobacillus stearothermophilus, pH 7.5, 25 °C, Fluorescence, TEA 50 mM, reversible: yes, whole UniProt chain shown

B1: Phosphoglycerate kinase wild type, P18912 (protein)
chain: MNKKTIRDVDVRGKRVFCRVDFNVPMEQGAITDDTRIRAALPTIRYLIEHGAKVILASHLGRPKGKVVEELRLDAVAKRLGELLERPVAKTNEAVGDEVKAAVDRLNEGDVLLLENVRFYPGEEKNDPELAKAFAELADLYVNDAFGAAHRAHASTEGIAHYLPAVAGFLMEKELEVLGKALSNPDRPFTAIIGGAKVKDKIGVIDNLLEKVDNLIIGGGLAYTFVKALGHDVGKSLLEEDKIELAKSFMEKAKEKGVRFYMPVDVVVADRFANDANTKVVPIDAIPADWSALDIGPKTRELYRDVIRESKLVVWNGPMGVFEMDAFAHGTKAIAEALAEALDTYSVIGGGDSAAAVEKFGLADKMDHISTGGGASLEFMEGKQLPGVVALEDK
unfolding free energy (GdnHCl): 4.35 kcal/mol | unfolding free energy (Urea): 4.21 kcal/mol

— FireProtDB (doi:10.1021/bi00066a003)
